In article PMC5510750 (Immunity, 2017):

B1: Wild-type IFN-λ3, recombinant (ligand)
chain: VPVARLRGALPDARGCHIAQFKSLSPQELQAFKRAKDALEESLLLKDCKCRSRLFPRTWDLRQLQVRERPVALEAELALTLKVLEATADTDPALGDVLDQPLHTLHHILSQLRACIQPQPTAGPRTRGRLHHWLHRLQEAPKKESPGCLEASVTFNLFRLLTRDLNCVASGDLCV
B2: H11/IFN-λR1 binary complex (complex)
chain 1: GSARGCHIAQFKSLSPRELQAFKRAKDALEESLLLKDCKCRSRLFPRTWDLRQLQVRERPVALEAELALTLKVLDATADTDPALGDVLDQPLHTLHHILSQLRACIQPQPTAGPRTRGRLHRWLHRLQEAPKKESPGCLEASVTFNLFRLLARDLNCVASGDLCEAAAHHHHHHHH
chain 2: RPRLAPPQNVTLLSQNFSVYLTWLPGLGNPQDVTYFVAYQSSPTRRRWREVEECAGTKELLCSMMCLKKQDLYNKFKGRVRTVSPSSKSPWVESEYLDYLFEVEPAPPVLVLTQTEEILSANATYQLPPCMPPLDLKYEVAFWKEGAGNKTLFPVTPHGQPVQITLQPAASEHHCLSARTIYTFSVPKYSKFSKPTCFLLEVPEAN
B3: IL-10Rβ, monomeric soluble receptor (receptor)
chain: MVPPPENVRMNSVNFKNILQWESPAFAKGNLTFTAQYLSYRIFQDKCMNTTLTECDFSSLSKYGDHTLRVRAEFADEHSDWVNITFCPVDDTIIGPPGMQVEVLADSLHMRFLAPKIENEYETWTMKNVYNSWTYNVQYWKNGTDEKFQITPQYDFEVLRNLEPWTTYCVQVRGFLPDRNKAGEWSEPVCEQTTHDETVPS
modifications: Alexa 647 label (in the yeast staining)
B4: IFN-λ3 H11, recombinant (designed binder)
chain: B2 chain 1

Columns and labels:
Test in all cases: SPR
[1] = molecular target: T1, IFN-λR1, soluble recombinant receptor (UniProt Q8IU57 21-226)
T1 sequence: B2 chain 2

[2] = molecular target: B3
[3] = molecular target: B2

Question: For B1, which Kd [1] is on record?
Answer: Its Kd is roughly 0.85 µM.

Question: How did the Kd [2] turn out when B2 was run?
Answer: The Kd was 0.56 µM.

Question: B3 was tested. Which “fold increase in affinity against the wild-type IFN-λ3/IFN-λR1 binary complex” value [3] did it give?
Answer: Its value is 30 fold.

Question: For B4, which Kd [1] is on record?
Answer: Its Kd is roughly 0.15 µM.
